Reference: the nanobody polyreactivity screen of Harvey et al. (2022)

Experiment: yeast display, Sf9 membrane polyspecificity reagent, FACS + sequencing; frameworks hold sequencing errors
Outline: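 Synthetic nanobody libraries on Saccharomyces cerevisiae BJ5465 were galactose-induced for 36–48 hours, stained 1 hour at 4 °C with 10% biotinylated, detergent-solubilized Sf9 membrane reagent and enriched on streptavidin microbeads. FACS then separated cells into low and high (top ~1%) gates by anti-HA (expression) and streptavidin (reagent binding) fluorescence. Genes were colony-PCR amplified, MiSeq 2 × 250 sequenced and CDR-length filtered. A clone's polyreactivity label is that of its gate of origin.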

| Sequence | polyreactivity (PSR sort gate) |
| --- | --- |
| QVQLVESGGGLVQAGGSLRLSCAASGRIFPTNAMGWYRQAPGKERELVASIDSGGSTKYADSVKGRFTISRDNAKNTVYLLMNSLKPEDTAVYYRALQVLNYDYWGQGTQVTVSS | low polyreactivity |
| QVQLVESGGGLVQAGGSLRLSCAASGRTFSINAMGWYRQAPGKERELVAAITWSGGSTYYADSVKGRFTISRDNAKNTVYLQMNSLKPEDTAVYYCNAGLGKFPVKGGRRYRLDYWGQGTQVTVSS | low polyreactivity |
| QVQLVESGGGLVQAGGSLRLSCAASGSTFVDYAMGWYRQAPGKERELVAGINGSGGSTYYADSVKGRFTISRDNAKNTVYLQMNSLKPEDTAVYYCAKDGSNRLALPAWDYNYWGQGTQVTVSS | low polyreactivity |
| QVQLVESGGGLVQAGGILRLSCAASGFIFAKYAMVWYRQAPGKERELVAAITSGGSTNYADSVKGRFTISRDNAKNTVYLQMNSLKPEDTAVYYCNRGFDWWYRYRHYDYWGQGTQVTVSS | low polyreactivity |
| QVQLVESGGGLVQAGGSLRLSCAASGSIFVNYAMGWYSQAPGTERELVAAISWRGGITYGVSVKGRFTISRDNAKNTVYLQMNSLKPEDTADYYSNTDGDDFFHVIYDYWAQGTQVTVSS | low polyreactivity |
| QVQLLESGGGLLQAGGSLRLSCAASGITLIGNAMGWYRQAPGKESELVAAISKSGGNTFYAVSVKGRFTISRDNAKNTVYLQMNSLKPEDTAVYYCAADGYYGYYSQYEYLYYYWGQGTQVTVSS | high polyreactivity |
| QVQLVESGGGLVQAGGSLRLSCAASGYIFSTYDMGWYRQAPGKERELVATISSSGGSTYYADSVKGRFTISRDIAKNTVYLQMNSLKPEDTAVYYCAADLYLYQYRYEYDYWGQGTQVTVSS | high polyreactivity |
| QVQLVESGGGLVQAGGSLRLSCAASGIIFRYYAMGWYRQAPGKERELVAAISGTGSTKYADSVKGRFTISRDNAKNTVYLQMNSLKPEDTAVYYCNPRKRYARYGGSGYDYWGQGTQVTVSS | high polyreactivity |
| QVQLVESGGGLVQAGGSLRLSCAASGSTFRRYAMGWYRQAPGKERELVAAITTRGGSTYYADSVKGRFTISRDNAKNSVYLQMNSLKPEDTAVYYCARDYSTYLRTAGDYWGQGTQVTVSS | low polyreactivity |
| QVQLVESGGGLVQAGGSLRLSCAASGRITQYTMGWYRQAPGKERELVASIRKSGSTHYADSVKGRFTISRDNAKNTVYLQMNSLKPEDTAVYYCAARTYNPLTGYGYWGQGTQVTVSS | high polyreactivity |
| QVQLVESGGGLVQAGGSLRLSCAASGRTFYPYAMGWYRQAPGKERELVAAISSGGGSTYYADSVKGRFTISRDNAKNTVYLQMNSLKPEDTAVYYCAKRAGWAGWYYRNDYWGQGTQVTVSS | high polyreactivity |
| QVQLVESGGGLVQAGGSLRLSCAASGRIFSGYAMGWYRQAPGKERELVATITSGGGTYYADSVKGRFTISRDNAKNTVYLQMNSLKPEDTAVYYCNAEKKGSFRKYNYWGQGTQVTVSS | low polyreactivity |
| QVQLVESGGGLVQAGGSLRLSCAASGIIFSHNVMGWYRQAPGKERELVAAITYSGGSTYYADSVKGRFTISRDNAKNTVYLQMNSMKPEDTAVYYCNAVTYSSPYRFDYWGQGTQVTVSS | low polyreactivity |
| QVQLVESVGGLVQAGGSLRLSCAASGGIFGVYAMGWYRQAPGKERELVAAISNSDTSTSYADSVMGRFTISRDIAKNTVYLQMNSVYPEDTAVYYCNADSPSLSGDYWGQGTQVTVSS | low polyreactivity |
| QVQLVESGGGLVQAGGSLRLSCAASGFIFRYYAMGWYRQAPGKERELVAAIDYSGGSTNYADSVKGRFTISRDYAKNTVYLQMNSQKPEDTAVYYCNAEYTWHRGYDYWGQGTQVTVSS | low polyreactivity |
| QVQLVESGGGLVQAGGSLRLSCAASGRTFGDNAMGWYRQARGKERELVAAISSGDSTYYADSVKGRFTISRDNAKNSVYLQMNSLKPEDTAVYYCAARWRYTFYVSYYYWGQGTQVTVSS | high polyreactivity |
| QVQLVESGGGLVQAGGSLRLSCAASGFIFLVNAMGWYRGAPGKERELVAAISKSTGGTYYADSVKGRFTISRDNAKNTVYLQMNSLKPEDTAVYYCAADEVYPVQRDMDYWGQGTQVTVSS | low polyreactivity |
| QVQLVESGGGLVQAGGSLRLSCAASGLIFATTVLGWYRQAPGKERELVASITTSGSRTYYADSVKGRFTISRDNAKNTVYLQMNSLKPEDTAVYYCAAYPTYLTPSSPGYDYWGQGTQVTVSS | high polyreactivity |
| QVHHVESGGGLVQAGGSLRLSCAASGSIFWTYAMGWYRQAPGKERELVAAITSGSSTKYADSVKGRFTISRDNAKNTVYLQMYSLKPEDTAVYYCNARSYRGYRGVFLYSGLLGSDYWGQGTQVTVSS | low polyreactivity |
| QVQLVESGGGLDQAGGSLRLSCAASGNIFPAYAMGWYRQAPGKERELVAAISKSGGRTYYADSVKGRFTISRDNAKKTVYLVMNSLKPEDSAVYFCAARDRRYQWTSWYDYWGQGTQVTVSS | high polyreactivity |
| QVQLVESGGGLVQAGGSLRLSCAASGSIFVVYSMGWYRQAPGKERELVAAISWGIGSTYYADSVKGRFTISRDNAKNTVYLQMNSLKPEDTALYYCAADTDIVLYDYWGQGTQVTVSS | low polyreactivity |
| QVQLVESGGGLVQAGGSLRLSCAASGRIIRVNAMGWYRQAPGKERELVAAISGRGGSTYYADSVKGRFTISRDNAKITVYLQMNSLKPEDTAVYYCAKKSYSYGYNSYDYWGQGTQVTVSS | high polyreactivity |

| Sequence | polyreactivity (PSR sort gate) |
| --- | --- |
| QVQLVESGGGLVQAVGSLRLSCAASGSTLSANAMGWYRQAPGKEWELVAAISWNGGCTYYADSVKGRFTISRDNAKNTVYLQMNSLKPEDTAVYYCAAEYIVTYEYWYFGYDYWGQGTQVTVSS | low polyreactivity |
| QVQLVESGGGLVQAGGSFRLSCAASGFTLYGNAMGWSRQAPGNDRELVATIRSTGSTTYADSVKGRFTISRDNAKNTVYLQMNSLKPEDTAVHYCAKVSTYGGRHRWPGSIYDYWGQGTQVTVSS | low polyreactivity |
| QVQLVESGGGLVHAGGSLRLSCAASGGILVFYAMGWYRQAPGKERELVAAINVSGGSTYYADSVKGRYTISRDNAKNTVYLQMNSLKPEDTAVYYCAALGPYLDYGVQYGYWGQGTQVTVSS | low polyreactivity |
| QVQLLESGGGLDQAGGILRLSCASSGRTFNWYAMGWYRQAPGKEREFVAAINWSGGSTYYADSVKGRFTISRDNAKNTVYLQMNSLKPEDTAVYYCNKYPVGYRMYYWGQGTQVTVSS | low polyreactivity |
| QVQLVESGGGLVQAGGSLRISCAASGFTFGPYDMGWYRQAPGKERELVAAITDSSGSTHYADSVKGRFTISRDNAKNTVYFQMNSLKPEDTAVYTCAADDSSRTTYYYWGQGTEVTVSS | low polyreactivity |
| QVQLVESGGGLVQAGGSLRLSCAASGRNFRYYAMGWYRPAPGKERELVAAISGSGGSTYYADSVKGRFTISRDNAKNTVYLQMNSLKPEDTAVYYCNARYRIPSGEGDHWGQGTQVTVSS | low polyreactivity |
| QVQLVESGGGLVQAGGSLRLSCAASGRTFETNAMGWYRQAPGKERELVASINWSGGSTYYADSVKGRFTISRDNAKNTVYLQMNSLKPEDTAVFYCAADHSYWDWWSYYYWGQGTQVTVSS | low polyreactivity |
| QVQLVESGGRLVQAGGSLRLSCAASGSTFGVNTKGWYRQAPGKEREFVAAITYGGGGTYYADSVKGRFTISRDNAKNTVYLQMNSLKPEDTAVYYCAARRAPKYYWGQGTQVTVSS | high polyreactivity |
| QVQRVESGGGLVQAGGSLRLSSAASGRTSRYAMGWYRQAPGKERELVAAISRSGGSTHNADSVKGRFTISRDNAKNNVYLHMNSLKPEDTAVYSCNAQQGRYWSAKGYDYWGQGTQVTVSS | high polyreactivity |
| QVQLEESVGGLVQAGGSLRLSCAASGRIFTIYAMVSYRQAPGKERELVAAISDRGTRTYYADSVKGRFTISRDNAKNTVYLQMNSLKPDDTAVYYCATDALYTYGYDYWGQGTQVTVSS | low polyreactivity |
| QVQLVESGGGVQAGGSLRLSCAASGRTFVPYAMGWYRQAPGKERELVAAISSIGDSTSYADSVKGRFTISRDNAKNTVYLQMNCLKPEDTAVYYFAAAEDRDRLVPKLDYWGQGTQVTVSS | low polyreactivity |
| QDQLVESGGGLVEAGGSLRLSCAASGITFSWYAMVWKRQAPGKEREFVAAISPGGTSTYYADSVKGRFTISRDNAKKTVYLQMNSLKPEDTAFYYCAVQWLYPYDYWGHGTQVTVSS | high polyreactivity |
| QVQLVESGGGLVQAGGSLRLSCAASGFIFFQYAMGWYRQAPGKERELVAAISSGGNTYYADSVKGRFTISRDNAKNTVYLQMNSLKPEDTAVYYCAAYYPLRKGYGYWGQGTQVTVSS | high polyreactivity |
| QVQLVESGGCLVQAGGSLRLSCAASGRIFGVYAMGWYRQAPGKERELVAAISEGGGSTNYADSVKGRFTISRDNANNTVYLQMNSLKPEDTAVYYCAATSRTGVRRYYSWGQGTQVTVSS | low polyreactivity |
| QVQLVESGGGLVQAGGSLRLSCAASGFTFWQYAMGWNRQAPGKERELVAAITWDVGSTYYSDSVKGRFTISRDNAKNTVYLQLNSLKPEDTAVYYCAKLIGGTYYEDDYWGQGSQVTVSS | low polyreactivity |
| QVQLVESGGGLVQAGGSLRLSCAPSGSIFSYYDMGGYRQAPGKERELVAGISRGGSTNYADSVKGRFTISRDNAKNTVYLQMNSLKPEDTAVYYCNADQSSRTFPFRLSRRSWLYGYWGQGSQVTVSS | low polyreactivity |
| QDQLVESGGGLVQAGGSLRLSCAASGSTSYRYSMGWYRQAPGKEREFVAAISWSGGSTYYADSVKGRFTISRDTAKNTVYLQMNSLKPEDTAVYYCAAVSRRGSARFDYWGQGTQVTVSS | high polyreactivity |
| QVQLVESGGGLVQAGGSLRLSCAASGRTFRGNAMGWYRQAPGKERELVAAISWRGTSTYYADSVKGRFTISRDNAKNTVYLQMNSLKPEDTAVYYCNTQRQLGERFYDRSRQGDYWGQGTQVTVSS | high polyreactivity |
| QLLLQESGRGLVQAGVSLRLSCAASGSIFLVYTIGCYRKAPLKEREFVAGIPLGTTTYNADSVKGRFTISRDNVKNTVYLQINSLKPEDTSVYYCAVAVGHYTDIWDWGQGTQVTMSS | high polyreactivity |
| QVQLVESGGGLVQAGGSLRLSCAASGRTFYPYGMGWYRQAPGKERELVATITTGGSTNYADSVKGRFTISRDNAKTTVYLQMNSLKPEDTAVYYCAAKTRIRYYSWGQGTQVTVSS | low polyreactivity |
| QVQLVESGGGLVQAGGSLRLSCAASGFTFPLYAMGWYRQAPGKERELVAAIRSSGGSTYYADSVKGRFTISRDNAKNTVYLQMNSLKPEDTAVYYCAKVRYTRRLDTYYYWGQGTQVTVSS | high polyreactivity |
